The experiment addresses human serum albumin (human) (UniProt P02768). In words: SPR.

Consider one substance from PMC4121139.

For the substance “albumin-binding domain (ABD) derived from streptococcal protein G (domain or fragment)”, the Kd is 8.1 nM, the koff was 0.00044 s⁻¹ and the kon turned out to be 54000 M⁻¹ s⁻¹.
